± gives the standard error. For some of these results: This sample holds only a part of the variants without activity.
B1: glmS ribozyme (parent)
chain: AUAAAAGCGCCAGAACUACAGAAAUGUAGUUGACGAGGAGGAGGUUUAUCGAAUUUUCGGCGGAUGCCUCCAAA

Tests used:
Settings in all cases: with glucosamine-6-phosphate
glucosamine-6-phosphate [1] = variants of: B1; assay: kcat; higher = faster cleavage; RNA array
Method in brief: (§1)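 Barcoded ribozyme variants, transcribed in situ by E. coli RNA polymerase on sequenced MiSeq chips, were followed via a hybridised Cy3 probe at 37 °C. Glucosamine-6-phosphate ranged from 40 μM to 10 mM in HEPES/KCl/Mg(OAc)2 buffer. kobs came from decay fits to per-tile medians, and kcat and KM from weighted Michaelis–Menten fits.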

glucosamine-6-phosphate [2] = variants of: B1; assay: self-cleavage kobs at 40 uM GlcN6P; higher = faster cleavage; RNA array
Method in brief: as §1

glucosamine-6-phosphate [3] = variants of: B1; assay: self-cleavage kobs at 640 uM GlcN6P; higher = faster cleavage; RNA array
Method in brief: as §1

glucosamine-6-phosphate [4] = variants of: B1; assay: self-cleavage kobs at 2500 uM GlcN6P; higher = faster cleavage; RNA array
Method in brief: as §1

glucosamine-6-phosphate [5] = variants of: B1; assay: self-cleavage kobs at 10000 uM GlcN6P; higher = faster cleavage; RNA array
Method in brief: as §1

glucosamine-6-phosphate [6] = variants of: B1; assay: KM; higher = weaker cofactor use; RNA array
Method in brief: as §1

glucosamine-6-phosphate [7] = variants of: B1; assay: self-cleavage kobs at 160 uM GlcN6P; higher = faster cleavage; RNA array
Method in brief: as §1

Row | Variant | kcat (glucosamine-6-phosphate [1]) | self-cleavage kobs at 40 uM GlcN6P (glucosamine-6-phosphate [2]) | self-cleavage kobs at 640 uM GlcN6P (glucosamine-6-phosphate [3]) | self-cleavage kobs at 2500 uM GlcN6P (glucosamine-6-phosphate [4]) | self-cleavage kobs at 10000 uM GlcN6P (glucosamine-6-phosphate [5]) | KM (glucosamine-6-phosphate [6]) | self-cleavage kobs at 160 uM GlcN6P (glucosamine-6-phosphate [7])
1 | AUAAAAGAGCCAGAACUACAGAAAUGUAGUUGACGAUGAGGAGGUUUAUCGAAUUUUCGGCGGAUGCCUACAAA [C8A G37U C70A] | 0.00017 ± 4.3e-05 s⁻¹ | 7.9e-05 ± 2.3e-05 s⁻¹ | 0.000214 ± 6.2e-05 s⁻¹ | 0.000331 ± 0.00011 s⁻¹ | 0.000139 ± 3.4e-05 s⁻¹ | – | –
2 | AUAAAAGCGCCAGUACUACAGAAAUGUAGUUGACGAGGCGGAGGUUUAUCGAAUUUUCGGCGGAUGCCUCCAAA [A14U A39C] | 0.00121 ± 0.00019 s⁻¹ | 2.83e-05 ± 7.2e-06 s⁻¹ | 0.000203 ± 2.4e-05 s⁻¹ | 0.000537 ± 8.2e-05 s⁻¹ | 0.000981 ± 9.1e-05 s⁻¹ | 2790 ± 700 µM | 7.69e-05 ± 1.2e-05 s⁻¹
3 | AUAAAGGCGCCAGAACUACAGAAAUGUAGUUGACGAGGAGGAGGUUUAUCGACAUUUCGGCGGAUGCCUCCAAA [A6G A53C U54A] | 5.34e-05 ± 9e-06 s⁻¹ | < 1e-05 s⁻¹ | – | 5.76e-05 ± 1.9e-05 s⁻¹ | 4.91e-05 ± 9.2e-06 s⁻¹ | – | < 1e-05 s⁻¹
4 | AUAAAAGCGCCGGAACUACAGAAAUGUAGUUGACGAGGAGGAGGUUUAUCGAAUUUUCGGCGGAUGCCUCUAAA [A12G C71U] | 0.00146 ± 0.0001 s⁻¹ | – | 0.000183 ± 1.9e-05 s⁻¹ | 0.000525 ± 4.6e-05 s⁻¹ | 0.00102 ± 8.1e-05 s⁻¹ | 4370 ± 470 µM | 5.89e-05 ± 1.1e-05 s⁻¹
5 | AUAAAAGCGCCAGAACUACAGAAAUGUAGUUGACGAGGAGGAGGUUUAUCGAAUUUUCGGCGGAUGUUUCCAAA [C67U C68U] | 0.000115 ± 7.3e-06 s⁻¹ | – | 7.85e-05 ± 9.1e-06 s⁻¹ | 0.000124 ± 1.3e-05 s⁻¹ | 0.000107 ± 7.4e-06 s⁻¹ | 293 ± 85 µM | 3.97e-05 ± 8.6e-06 s⁻¹
6 | AUAAAAGCGCCAGAACUACAGAAAUGUAGUUGACGAGGAGGAGGCUUACCGAAUUUUCGGCGGAUUCCUCCAAA [U45C U49C G66U] | < 1e-05 s⁻¹ | – | – | < 1e-05 s⁻¹ | < 1e-05 s⁻¹ | – | –
7 | AUAAAAGCGCCAGAUCUACAGAAAUGUAGUUGACGAGGAGGAGGUUUAUCGAAUUUUCGGCGGAUGCCUCAAAA [A15U C71A] | 0.000688 ± 4.8e-05 s⁻¹ | 3.22e-05 ± 8.9e-06 s⁻¹ | 0.000278 ± 3.4e-05 s⁻¹ | 0.000497 ± 6.4e-05 s⁻¹ | 0.000605 ± 7e-05 s⁻¹ | 1050 ± 120 µM | 8.62e-05 ± 8.8e-06 s⁻¹
8 | AUAAAAGCGCCAGAACUACAGAAAUGUAGUUGACGAGGAGGAGGGUUUUCGAAUUUUCGGCGGAUGCCUCCAAA [U45G A48U] | 0.000351 ± 8.1e-05 s⁻¹ | – | 5.51e-05 ± 1.4e-05 s⁻¹ | 0.000209 ± 4.5e-05 s⁻¹ | 0.000246 ± 5.7e-05 s⁻¹ | 3040 ± 1200 µM | –
9 | AUAAAAGCGCCAGAACUACAGAAAUGUAGUUGACGAGGAGGAGGUUUAUCGAAUCUUCGUCGGAUGCCUCCAAA [U55C G60U] | 1.04e-05 ± 3.4e-06 s⁻¹ | < 1e-05 s⁻¹ | < 1e-05 s⁻¹ | – | < 1e-05 s⁻¹ | – | < 1e-05 s⁻¹
10 | AUAAAAGCGCCAGAACUACAGAAAUGUAGUUGACGAGCAGGAGGUUUGUCGAAUUUUCGGCGGAUGCCUCCAAA [G38C A48G] | < 1e-05 s⁻¹ | – | < 1e-05 s⁻¹ | – | – | – | –
11 | AUAAAAGCGCCAGAACUACAGAAAUGUAGUUGACGAGGAGGAGGUUCAUCGAAUGUUCGGCGGAUGCCUCCAAA [U47C U55G] | 0.0038 ± 0.00044 s⁻¹ | 9.2e-05 ± 7.2e-06 s⁻¹ | 0.0011 ± 0.00014 s⁻¹ | 0.00161 ± 0.00035 s⁻¹ | 0.00347 ± 0.00028 s⁻¹ | 1640 ± 260 µM | 0.000341 ± 4.2e-05 s⁻¹
12 | AUAAAAGCGCCAGAACUACAGAAAUGUAGUUGCCGAGGAGGAGGUUAAUCGAAUUUUCGGCGGAUGCCUCCAAA [A33C U47A] | 0.000256 ± 2.1e-05 s⁻¹ | – | 4.21e-05 ± 1.7e-05 s⁻¹ | 0.000136 ± 4.7e-05 s⁻¹ | 0.000195 ± 3.4e-05 s⁻¹ | 2950 ± 550 µM | –
13 | AUAAAAGCGCCAGAACUACAGAAAUGUAGUUGACGAGGAGGAGGUUUAUCGAACUUUCGGCCGAUGCCUCCAAA [U54C G62C] | < 1e-05 s⁻¹ | < 1e-05 s⁻¹ | < 1e-05 s⁻¹ | < 1e-05 s⁻¹ | – | 133 ± 48 µM | < 1e-05 s⁻¹
14 | AUAAAAGCGCCAGAACUACAGAAAUGUAGUUGACGAGGAGGAGGUUUAUCGAAUUUUCGGCGGAUGCCUAGAAA [C70A C71G] | 5.62e-05 ± 4.3e-06 s⁻¹ | – | 5.81e-05 ± 7.8e-06 s⁻¹ | 5.08e-05 ± 7.8e-06 s⁻¹ | 5.37e-05 ± 7.8e-06 s⁻¹ | – | 3.29e-05 ± 1.1e-05 s⁻¹
15 | AUAAAAGCGCCAGAACUACAGAAAUGUAGUUGACGAGGAGGAGGUUUAUCGAAUUUUUGGCGGAUGCCUACAAA [C58U C70A] | 2.29e-05 ± 6.9e-06 s⁻¹ | – | 3.84e-05 ± 1.4e-05 s⁻¹ | – | – | – | –

From the supplement of paper PMC7125110
